The target in experiment [1] is T1, nemp1_mouse Nemp1 (UniProt Q6ZQE4).
T1 sequence: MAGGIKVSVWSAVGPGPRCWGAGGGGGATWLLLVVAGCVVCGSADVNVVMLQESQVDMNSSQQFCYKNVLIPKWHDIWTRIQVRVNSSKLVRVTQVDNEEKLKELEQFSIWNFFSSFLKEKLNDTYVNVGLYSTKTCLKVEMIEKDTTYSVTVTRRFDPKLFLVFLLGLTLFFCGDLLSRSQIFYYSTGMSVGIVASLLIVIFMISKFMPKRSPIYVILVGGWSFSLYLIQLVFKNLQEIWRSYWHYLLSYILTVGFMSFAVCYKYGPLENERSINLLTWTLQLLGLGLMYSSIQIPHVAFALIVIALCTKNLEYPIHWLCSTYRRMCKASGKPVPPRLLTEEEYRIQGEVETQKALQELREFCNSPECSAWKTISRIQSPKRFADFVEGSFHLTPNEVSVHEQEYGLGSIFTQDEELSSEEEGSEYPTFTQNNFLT

For experiment [2], the target named is T1, nemp1_mouse Nemp1. The source holds these as a separate data set.

Consider “GTP-binding nuclear protein Ran (Mus musculus) (from UniProt P62827) T24N”, for which the figures for the “effect of a mutation on the interaction” value in experiment [1] and in experiment [2] were “disrupting interaction strength” and “decreasing interaction strength”, respectively.
For the substance “GTP-binding nuclear protein Ran (Mus musculus) (from UniProt P62827) Q69L”, the “effect of a mutation on the interaction” value in experiment [1] was “with no effect”.
As for “GTP-binding nuclear protein Ran (Mus musculus) (from UniProt P62827) T42A”, the “effect of a mutation on the interaction” value in experiment [1] was “disrupting interaction strength”.

For the origin of these results see IntAct's records for PubMed 25946333.
